US20140377215A1

Legend:
Assay in all cases: 1H-15N HSQC NMR titration of 15N-labeled CBD with mini-collagen
[1] = molecular target: [PROXYL-(POG)3POA(POG)6]3
[2] = molecular target: [PROXYL-(POG)6POA(POG)3]3
[3] = molecular target: [PROXYL-(POG)5POA(POG)4]3
[4] = molecular target: [PROXYL-(POG)4POA(POG)5]3

Measured: Kd

Sequence of collagen-binding domain (CBD), s3b (Gly893-Lys1008) peptide derived from Clostridium histolyticum cl (Q9X721 1003-1118 limits assumed): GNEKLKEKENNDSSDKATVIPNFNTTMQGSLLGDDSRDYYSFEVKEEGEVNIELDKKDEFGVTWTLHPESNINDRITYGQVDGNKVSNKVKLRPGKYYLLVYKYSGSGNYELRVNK

collagen-binding domain (CBD), s3b (Gly893-Lys1008) peptide derived from Clostridium histolyticum cl (from UniProt Q9X721 1003-1118)
< 100 µM: all assays above
